# Legend:
# [1] = molecular target: Human GIP receptor (human) (UniProt P48546)
# [2] = molecular target: Mouse GIP receptor (mouse) (UniProt Q0P543)
# Rat GIP receptor (rat) [3] = molecular target: Rat GIP receptor (rat) (UniProt P43219)
# Rat GIP receptor (rat) [4] = molecular target: Rat GIP receptor (rat) (UniProt P43219); remark: listed apart in the source
# [5] = molecular target: Mouse GIP receptor (mouse) (UniProt Q0P543); experiment: radioligand binding
# perfused rat pancreas = conditions: 100 nM (Pro3)GIP, 1 nM GIP, 10 mM arginine, 7 mM glucose, radioimmunoassay, N=6-9
# [6] = tested on: perfused pancreata from GIPR KO mice; conditions: 100 nM mouse (Pro3)GIP, 1 nM mouse GIP, 10 mM arginine, 7 mM glucose, N=3
# [7] = molecular target: Human GIP receptor (human) (UniProt P48546); experiment: radioligand binding
# Rat GIP receptor (rat) [8] = molecular target: Rat GIP receptor (rat) (UniProt P43219); experiment: radioligand binding
# GIP receptor = conditions: read-out: affinity (IC50); ref Deacon et al., 2006; cited from earlier work
# pigs = conditions: ref Deacon et al., 2006; cited from earlier work
# Human GIP receptor [9] = molecular target: T1, Human GIP receptor (human, UniProt P48546 22-466); experiment: radioligand binding
# T1 sequence: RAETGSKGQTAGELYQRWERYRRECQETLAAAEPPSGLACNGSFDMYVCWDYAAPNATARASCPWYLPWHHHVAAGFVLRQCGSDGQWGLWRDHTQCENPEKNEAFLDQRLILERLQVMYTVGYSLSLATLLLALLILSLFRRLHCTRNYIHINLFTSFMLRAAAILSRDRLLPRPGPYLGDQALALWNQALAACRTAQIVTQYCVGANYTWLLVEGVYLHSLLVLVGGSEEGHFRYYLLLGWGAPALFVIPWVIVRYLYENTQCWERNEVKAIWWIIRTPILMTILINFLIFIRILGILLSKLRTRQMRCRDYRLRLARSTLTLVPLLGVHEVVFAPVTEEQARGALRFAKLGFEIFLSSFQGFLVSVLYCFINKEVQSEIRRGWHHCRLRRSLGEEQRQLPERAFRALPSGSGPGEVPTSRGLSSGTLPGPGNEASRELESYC
# Rat GIP receptor [10] = molecular target: T2, Rat GIP receptor (rat, UniProt P43219 19-455); experiment: radioligand binding
# T2 sequence: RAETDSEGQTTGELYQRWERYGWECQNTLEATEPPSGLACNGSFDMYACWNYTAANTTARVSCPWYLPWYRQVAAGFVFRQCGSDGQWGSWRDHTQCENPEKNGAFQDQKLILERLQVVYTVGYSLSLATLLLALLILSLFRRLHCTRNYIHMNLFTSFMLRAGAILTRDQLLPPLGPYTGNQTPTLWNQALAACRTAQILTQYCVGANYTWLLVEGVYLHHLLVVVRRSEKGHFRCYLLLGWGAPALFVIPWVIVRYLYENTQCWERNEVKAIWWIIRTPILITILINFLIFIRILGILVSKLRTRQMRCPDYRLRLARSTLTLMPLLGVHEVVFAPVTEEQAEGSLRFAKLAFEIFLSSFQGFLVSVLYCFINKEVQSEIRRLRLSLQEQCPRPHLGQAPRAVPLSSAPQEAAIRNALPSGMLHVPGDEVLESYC
# Human GIP receptor [11] = molecular target: T1, Human GIP receptor; experiment: cell-based or functional assay
# Rat GIP receptor [12] = molecular target: T2, Rat GIP receptor; experiment: cell-based or functional assay
# Mouse GIP receptor [13] = molecular target: T3, Mouse GIP receptor (mouse, UniProt Q0P543 19-460); experiment: cell-based or functional assay
# T3 sequence: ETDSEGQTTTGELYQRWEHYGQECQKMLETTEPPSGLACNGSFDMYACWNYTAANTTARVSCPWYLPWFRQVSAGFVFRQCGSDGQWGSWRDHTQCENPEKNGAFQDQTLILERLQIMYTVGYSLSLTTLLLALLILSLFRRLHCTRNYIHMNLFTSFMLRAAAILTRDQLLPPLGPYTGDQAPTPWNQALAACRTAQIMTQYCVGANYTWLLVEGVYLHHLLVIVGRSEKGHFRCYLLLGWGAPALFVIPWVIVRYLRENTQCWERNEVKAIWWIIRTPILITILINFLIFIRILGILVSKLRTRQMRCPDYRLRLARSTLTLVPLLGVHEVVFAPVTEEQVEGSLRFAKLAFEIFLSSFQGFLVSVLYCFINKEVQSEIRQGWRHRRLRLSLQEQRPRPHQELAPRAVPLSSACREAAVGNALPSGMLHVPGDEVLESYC
# Mouse GIP receptor [14] = molecular target: T3, Mouse GIP receptor; experiment: radioligand binding
molecule,measurement,setting,value
Rat (Pro3)GIP (from UniProt Q06145 44-85) (peptide),Emax of cAMP accumulation in transfected COS-7 cells,[1],73
same,EC50 of cAMP accumulation in transfected COS-7 cells,[2],0.038 µM
same,Emax of cAMP accumulation in transfected COS-7 cells,[2],57
same,EC50 of cAMP accumulation in transfected COS-7 cells,Rat GIP receptor (rat) [3],0.013 µM
same,Emax of cAMP accumulation in transfected COS-7 cells,Rat GIP receptor (rat) [3],64
same,"Emax of cAMP accumulation, normalised to rat GIP on the rat receptor (Figure 2B)",Rat GIP receptor (rat) [4],50%
same,logIC50,[5],-8.1
N=C(N)NCCC[C@H](N)C(=O)O [arginine],glucagon secretion,perfused rat pancreas,induced secretion of the respective hormones
same,insulin secretion,perfused rat pancreas,induced secretion of the respective hormones
same,somatostatin secretion,perfused rat pancreas,induced secretion of the respective hormones
same,glucagon secretion,[6],induced secretion of the respective hormones
same,insulin secretion,[6],induced secretion of the respective hormones
same,somatostatin secretion,[6],induced secretion of the respective hormones
Mouse (Pro3)GIP (from UniProt P48756 44-85) (peptide),Emax of cAMP accumulation in transfected COS-7 cells,[1],67
same,EC50 of cAMP accumulation in transfected COS-7 cells,[2],0.029 µM
same,Emax of cAMP accumulation in transfected COS-7 cells,[2],59
same,EC50 of cAMP accumulation in transfected COS-7 cells,Rat GIP receptor (rat) [3],0.015 µM
same,Emax of cAMP accumulation in transfected COS-7 cells,Rat GIP receptor (rat) [3],61
same,logIC50,[7],-8.1
same,logIC50,[5],-8.3
same,logIC50,Rat GIP receptor (rat) [8],-8.1
Human (Pro3)GIP (peptide),EC50 of cAMP accumulation in transfected COS-7 cells,[1],0.0047 µM
same,EC50 of cAMP accumulation in transfected COS-7 cells,[2],0.092 µM
same,Emax of cAMP accumulation in transfected COS-7 cells,[2],71
same,logIC50,[7],-8
same,logIC50,[5],-7.4
"GIP(3–42): naturally occurring GIP metabolite (EGTFISDYSIAMDKIHQQDFVNWLLAQKGKKNDWKHNITQ; Gastric inhibitory polypeptide; UniProt P09681 54-93, looked up, fragment)",IC50,GIP receptor,0.022 µM
same,antagonistic effect in vivo,pigs,no antagonistic effect could be demonstrated
"YAEGTFISDYSIAMDKIRQQDFVNWLLAQRGKKSDWKHNITQ (ligand) [Mouse GIP (glucose-dependent insulinotropic polypeptide, GIP(1-42))]",Ki,Human GIP receptor [9],0.002 µM
same,logIC50,Human GIP receptor [9],-8.7
same,logIC50,Rat GIP receptor [10],-8.9
same,Emax of cAMP accumulation in transfected COS-7 cells,Human GIP receptor [11],99
same,Emax of cAMP accumulation in transfected COS-7 cells,Rat GIP receptor [12],120
same,Emax of cAMP accumulation in transfected COS-7 cells,Mouse GIP receptor [13],156
"YAEGTFISDYSIAMDKIHQQDFVNWLLAQKGKKNDWKHNITQ (ligand) [Human GIP (glucose-dependent insulinotropic polypeptide, GIP(1-42))]",Emax of cAMP accumulation in transfected COS-7 cells,Rat GIP receptor [12],100
"YAEGTFISDYSIAMDKIRQQDFVNWLLAQKGKKNDWKHNLTQ (ligand) [Rat GIP (glucose-dependent insulinotropic polypeptide, GIP(1-42))]",logIC50,Human GIP receptor [9],-8.9
same,logIC50,Mouse GIP receptor [14],-9.6
same,Emax of cAMP accumulation in transfected COS-7 cells,Human GIP receptor [11],113
same,Emax of cAMP accumulation in transfected COS-7 cells,Rat GIP receptor [12],117
same,Emax of cAMP accumulation in transfected COS-7 cells,Mouse GIP receptor [13],144
